From publication PMC3663191 (mBio, 2013)
Several values for one entry are separate records, joined by “and”; a condition that tells them apart may be missing. Equal values may be shown once.

Biological target: the molecule itself
Assay: SEC

Protein | stoichiometry N
WspR^wt (His-tagged WspR, purified) (enzyme, Pseudomonas aeruginosa) MHNPHESKTDLGAPLDGAVMVLLVDDQAMIGEAVRRSLASEAGIDFHFCSDPQQAVAVANQIKPTVILQDLVMPGVDGLTLLAAYRGNPATRDIPIIVLSTKEEPTVKSAAFAAGANDYLVKLPDAIELVARIRYHSRSYIALQQRDEAYRALRESQQQLLETNLVLQRLMNSDGLTGLSNRRHFDEYLEMEWRRSLREQSQLSLLMIDVDYFKSYNDTFGHVAGDEALRQVAGAIREGCSRSSDLAARYGGEEFAMVLPGTSPGGARLLAEKVRRTVESLQISHDQPRPGSHLTVSIGVSTLVPGGGGQTFRVLIEMADQALYQAKNNGRNQVGLMEQPVPPAPAG | 4 and 2
WspR^V72D (His-tagged WspR V72D variant, purified) (enzyme, Pseudomonas aeruginosa) MHNPHESKTDLGAPLDGAVMVLLVDDQAMIGEAVRRSLASEAGIDFHFCSDPQQAVAVANQIKPTVILQDLDMPGVDGLTLLAAYRGNPATRDIPIIVLSTKEEPTVKSAAFAAGANDYLVKLPDAIELVARIRYHSRSYIALQQRDEAYRALRESQQQLLETNLVLQRLMNSDGLTGLSNRRHFDEYLEMEWRRSLREQSQLSLLMIDVDYFKSYNDTFGHVAGDEALRQVAGAIREGCSRSSDLAARYGGEEFAMVLPGTSPGGARLLAEKVRRTVESLQISHDQPRPGSHLTVSIGVSTLVPGGGGQTFRVLIEMADQALYQAKNNGRNQVGLMEQPVPPAPAG | 4 and 2
